Assay in all cases: cell-based or functional assay
In test [1] the target is hemagglutinin (HA) of H1N1 virus strain A/New Caledonia/22/1999 (influenza A virus H1N1, A/New Caledonia/22/1999).
Test [2] deals with hemagglutinin (HA) of H1N1 virus strain A/Chile/8885/2001 (influenza A virus H1N1, A/Chile/8885/2001).
The target in test [3] is hemagglutinin (HA) of H1N1 virus strain A/Brisbane/59/2007 (influenza A virus H1N1, A/Brisbane/59/2007).
In test [4] the target is hemagglutinin (HA) of H1N1 virus strain A/Canada/59/2004 (influenza A virus H1N1, A/Canada/59/2004).
Test [5] has as its target hemagglutinin (HA) of H1N1 virus strain A/Bangkok/163/2000 (influenza A virus H1N1, A/Bangkok/163/2000).
The target in test [6] is hemagglutinin (HA) of H1N1 virus strain A/Fujian/156/2000 (influenza A virus H1N1, A/Fujian/156/2000).
For test [7], the target named is hemagglutinin (HA) of H1N1 virus strain A/USSR/90/1977 (influenza A virus H1N1, A/USSR/90/1977).
Test [8] has as its target hemagglutinin (HA) of H1N1 virus strain A/Solomon islands/03/2006, on virus (influenza A virus H1N1, A/Solomon Islands/03/2006).
In test [9] the target is hemagglutinin (HA) of H1N1 virus strain A/Beijing/262/1995 (influenza A virus H1N1, A/Beijing/262/1995).
In test [10] the target is hemagglutinin (HA) of H1N1 virus strain A/Kawasaki/6/1986 (influenza A virus H1N1, A/Kawasaki/6/1986).
Test [11] deals with hemagglutinin (HA) of H1N1 virus strain A/Auckland/65/2001 (influenza A virus H1N1, A/Auckland/65/2001).
In test [12] the target is hemagglutinin (HA) of H1N1 virus strain A/Shanghai/2/1997 (influenza A virus H1N1, A/Shanghai/2/1997).
Test [13] addresses hemagglutinin (HA) of H1N1 virus strain A/Neimenggu/52/2002 (influenza A virus H1N1, A/Neimenggu/52/2002).
Test [14] has as its target hemagglutinin (HA) of H1N1 virus strain A/Shengzhen/227/1995 (influenza A virus H1N1, A/Shengzhen/227/1995).
The target in test [15] is hemagglutinin (HA) of H1N1 virus strain A/Moscow/13/1998 (influenza A virus H1N1, A/Moscow/13/1998).
Test [16] has as its target hemagglutinin (HA) of H1N1 virus strain A/Johannesburg/159/1997 (influenza A virus H1N1, A/Johannesburg/159/1997).
Test [17] concerns the target hemagglutinin (HA) of H1N1 virus strain A/Florida/2/1993 (influenza A virus H1N1, A/Florida/2/1993).
The target of test [18] is hemagglutinin (HA) of H1N1 virus strain A/Ostrava/801/1998 (influenza A virus H1N1, A/Ostrava/801/1998).

On to mAb CH67 (antibody), for which the mAb minimum effective concentration (EC99, microneutralization on MDCK cells) in test [1] was found to be 0.195 µg/mL; in [2], 0.098 µg/mL; in test [3], 0.98 µg/mL; in test [4] it was 0.098 µg/mL; in test [5], 0.098 µg/mL; in [6] it was 0.049 µg/mL. Also, the mAb minimum effective concentration (EC99, microneutralization on MDCK cells) in [7] stood at 25 µg/mL; in [8], 0.098 µg/mL; in [9], 0.098 µg/mL; in test [10], 0.39 µg/mL; in test [11] it was 0.098 µg/mL; in test [12], 0.195 µg/mL. For the same substance, the mAb minimum effective concentration (EC99, microneutralization on MDCK cells) in [13] was 0.098 µg/mL; in test [14], 0.024 µg/mL; in test [15] it was 0.012 µg/mL; in test [16], 0.39 µg/mL; in test [17], 0.012 µg/mL.
As for “mAb CH65, recombinant intact IgG1 (antibody)”, the mAb minimum effective concentration (EC99, microneutralization on MDCK cells) stood at 0.391 µg/mL in test [1]; 12.5 µg/mL in test [18]; 0.195 µg/mL in test [2]; 0.098 µg/mL in test [3]; 0.098 µg/mL in test [4]; 0.195 µg/mL in [5]. Also, the mAb minimum effective concentration (EC99, microneutralization on MDCK cells) in test [6] was found to be 0.488 µg/mL; in test [7], 100 µg/mL; in test [8], 0.024 µg/mL; in test [9], 0.098 µg/mL; in test [10], 0.098 µg/mL; in test [11], 0.195 µg/mL. For the same substance, the mAb minimum effective concentration (EC99, microneutralization on MDCK cells) in test [12] worked out at 0.195 µg/mL; in test [13], 0.098 µg/mL; in test [14], 0.012 µg/mL; in test [15], 0.012 µg/mL; in test [16], 0.098 µg/mL; in test [17], 0.012 µg/mL.

The values above are taken from patent publication US20140302043A1.
